Literature values in paper PMC3651761.

Columns and labels:
[1] = target: Met receptor (Homo sapiens) (UniProt P08581)
IGF-IR (Homo sapiens) = IGF-IR (Homo sapiens) (UniProt P08069)
Sequence of UniProt P08069 (P08069 31-736, chain 1 of 2): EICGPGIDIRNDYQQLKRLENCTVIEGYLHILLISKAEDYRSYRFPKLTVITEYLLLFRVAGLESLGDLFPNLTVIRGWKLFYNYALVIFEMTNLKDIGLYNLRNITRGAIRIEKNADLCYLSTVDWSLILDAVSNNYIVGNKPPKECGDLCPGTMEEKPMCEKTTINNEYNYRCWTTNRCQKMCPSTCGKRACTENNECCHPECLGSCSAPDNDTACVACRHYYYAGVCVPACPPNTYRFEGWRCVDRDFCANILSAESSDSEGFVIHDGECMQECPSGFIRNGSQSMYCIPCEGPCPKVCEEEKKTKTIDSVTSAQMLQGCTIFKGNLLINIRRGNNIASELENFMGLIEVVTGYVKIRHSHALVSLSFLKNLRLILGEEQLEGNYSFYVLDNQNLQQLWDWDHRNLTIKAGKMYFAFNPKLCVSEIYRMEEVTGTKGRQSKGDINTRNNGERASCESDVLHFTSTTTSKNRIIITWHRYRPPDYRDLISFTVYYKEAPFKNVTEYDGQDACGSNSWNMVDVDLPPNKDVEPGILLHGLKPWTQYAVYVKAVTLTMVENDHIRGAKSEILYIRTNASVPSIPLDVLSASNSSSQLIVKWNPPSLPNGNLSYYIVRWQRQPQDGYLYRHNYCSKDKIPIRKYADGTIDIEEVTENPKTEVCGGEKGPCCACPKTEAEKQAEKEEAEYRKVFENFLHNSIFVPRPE
Sequence of UniProt P08069 (P08069 741-935, chain 2 of 2): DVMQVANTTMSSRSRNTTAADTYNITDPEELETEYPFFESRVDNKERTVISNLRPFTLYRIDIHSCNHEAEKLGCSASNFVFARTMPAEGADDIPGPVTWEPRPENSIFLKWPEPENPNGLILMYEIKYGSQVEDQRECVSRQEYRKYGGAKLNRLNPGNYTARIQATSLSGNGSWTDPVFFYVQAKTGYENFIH

Sequence of UniProt P08581 (P08581 25-932): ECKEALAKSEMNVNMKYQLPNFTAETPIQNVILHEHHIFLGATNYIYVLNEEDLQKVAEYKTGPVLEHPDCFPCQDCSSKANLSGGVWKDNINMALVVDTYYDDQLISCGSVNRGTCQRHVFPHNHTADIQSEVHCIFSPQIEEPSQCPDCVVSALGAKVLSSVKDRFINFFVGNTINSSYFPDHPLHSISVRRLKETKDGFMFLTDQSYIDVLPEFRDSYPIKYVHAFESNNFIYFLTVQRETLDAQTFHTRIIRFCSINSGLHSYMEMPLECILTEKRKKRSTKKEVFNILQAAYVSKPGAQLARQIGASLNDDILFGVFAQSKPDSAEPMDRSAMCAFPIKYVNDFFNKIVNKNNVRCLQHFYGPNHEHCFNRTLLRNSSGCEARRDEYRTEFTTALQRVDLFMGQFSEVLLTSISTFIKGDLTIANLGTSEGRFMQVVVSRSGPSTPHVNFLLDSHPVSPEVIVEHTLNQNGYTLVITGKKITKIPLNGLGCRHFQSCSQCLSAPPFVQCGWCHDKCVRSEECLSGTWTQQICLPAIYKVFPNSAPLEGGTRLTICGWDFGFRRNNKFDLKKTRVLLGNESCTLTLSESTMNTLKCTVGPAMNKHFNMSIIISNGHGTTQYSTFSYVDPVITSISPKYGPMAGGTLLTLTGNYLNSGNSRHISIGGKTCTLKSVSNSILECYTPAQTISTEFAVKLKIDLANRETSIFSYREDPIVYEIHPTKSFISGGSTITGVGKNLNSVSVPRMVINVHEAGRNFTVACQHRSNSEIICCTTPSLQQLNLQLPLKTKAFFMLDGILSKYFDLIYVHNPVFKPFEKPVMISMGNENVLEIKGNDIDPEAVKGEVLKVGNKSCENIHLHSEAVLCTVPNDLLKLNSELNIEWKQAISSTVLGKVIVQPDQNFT

Decorin (from UniProt P07585)
Kd [1]: 2 nM | Kd (IGF-IR (Homo sapiens)): 18 nM
